In publication PMC11429203 (Biomimetics, 2024) one finds Kd data, which are given here for two molecules.

The target in this assay is T1, human FGFR2 protein (His-tag) residue 403-822 (human, UniProt P21802-3 403-822).
T1 construct: fibroblast growth factor receptor 2 (FGFR2), human, residues 403-822 (cytoplasmic part with the kinase domain); docking used residues 461-763 of PDB 7OZY, another construct; also called FGFR2 kinase domain; FGFR2 protein kinase domain; source: bought: Thermo Fisher Scientific
Put plainly: SPR; FGFR2 (10 µg/mL) coupled through NHS/EDAC to 11-mercaptoundecanoic acid on gold chips; peptides flowed at 50 nM, 100 nM, 1 µM, 50 µM and 100 µM in 1X PBS, 30 µL/min, 2000 s; KD by non-linear regression, mean of three runs. As to conditions: both partners purified. In general terms: In SPR one partner is held on a chip, and binding of the other changes the refractive index at the surface.

T1 sequence (P21802 402-821): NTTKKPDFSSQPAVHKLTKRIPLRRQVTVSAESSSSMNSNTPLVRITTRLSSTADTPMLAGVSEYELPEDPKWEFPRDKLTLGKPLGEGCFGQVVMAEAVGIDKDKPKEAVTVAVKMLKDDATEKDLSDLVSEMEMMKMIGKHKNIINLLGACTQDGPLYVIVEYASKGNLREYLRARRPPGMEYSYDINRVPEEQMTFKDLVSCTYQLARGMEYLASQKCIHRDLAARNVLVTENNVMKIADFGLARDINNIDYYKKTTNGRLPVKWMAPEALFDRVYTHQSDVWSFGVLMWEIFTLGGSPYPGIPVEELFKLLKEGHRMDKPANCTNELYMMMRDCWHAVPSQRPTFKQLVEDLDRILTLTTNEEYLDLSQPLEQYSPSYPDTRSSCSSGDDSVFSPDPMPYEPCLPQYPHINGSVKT

B1: ACSAG (A-pep) (peptide)
peptide: ACSAG
notes: Unconjugated peptide (no DOX, no fluorescein) in the SPR and antibody-staining experiments; also called ACSAG peptide; source: synthetic peptide, custom-ordered from GenScript
The molecule B1 returned a Kd of 14.1 µM.

B2: ACSAGLPHVLTPEAGATGASCA (Trimer-pep) (peptide)
peptide: ACSAGLPHVLTPEAGATGASCA
notes: Newly designed fusion peptide of 22 residues; also called fusion trimer peptide; source: synthetic peptide, custom-ordered from GenScript
Regarding B2, the affinity, expressed as Kd, was 7.53 µM.

A word on the Kd: it is the free concentration of one partner at which half of the binding sites on the other are occupied at equilibrium, for simple one-to-one binding. High values mean lower affinity, low ones higher affinity.
